Reference: the supplement of paper PMC9732359
± gives the uncertainty stated by the source.

Test: protein stability index of a GFP-peptide fusion (yeast GPS) (PSI 1-4); higher = more stable; sorted into four equal gates, so the index is relative within each strain
How it was run: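 Tiled yeast protein peptides of 17 residues were each joined downstream of GFP, on plasmids that also express Cherry. The pooled library was maintained in yeast, and mid-log cultures in leucine-free medium were sorted into four equal gates on the GFP/Cherry ratio. Plasmids from every gate were amplified by PCR and sequenced on Illumina, with barcodes linking reads to strains. The protein stability index of a peptide is its gate-number-weighted read frequency summed over the gates.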

Row | Sequence | protein stability index (doa10∆) | protein stability index (pdr5∆) | protein stability index (san1∆) | protein stability index (ubr1∆)
1 | IREGQNQKIPDNVIVIN [SIR3] | 2.9 ± 0.049 | 3.12 ± 0.065 | 2.98 ± 0.057 | 3 ± 0.046
2 | IVHDDPASDDILDNINH [ITC1] | 2.98 ± 0.072 | 3.02 ± 0.062 | 3.04 ± 0.09 | 3.25 ± 0.058
3 | VIPIRRGYWGTNLGQPH [RPS2] | 2.04 ± 0.074 | 1.67 ± 0.11 | 1.91 ± 0.18 | 1.79 ± 0.13
4 | AKYHAKLNKKLQHLRSR [SRP68] | 3.3 ± 0.088 | 3.44 ± 0.078 | 3.26 ± 0.046 | 3.07 ± 0.059
5 | LLIADSRRPEPKKFGGK [RPS16A] | 3 ± 0.091 | 3.12 ± 0.077 | 3.23 ± 0.065 | 3.07 ± 0.05
6 | KMIILDKLLKRLKEKGS [ISW2] | 1.58 ± 0.049 | 1.32 ± 0.061 | 1.35 ± 0.12 | 1.44 ± 0.055
7 | QFMKRFPMPYENEEFIT [ECM29] | 2.88 ± 0.062 | 2.83 ± 0.094 | 2.85 ± 0.083 | –
8 | FPGDSFPVDPTTPVKLG [RRP40] | 2.45 ± 0.058 | 2.58 ± 0.053 | 2.65 ± 0.045 | 2.62 ± 0.048
9 | PPDSDSSISVMGENEKP [RPT3] | 1.47 ± 0.16 | 1.22 ± 0.12 | 1.21 ± 0.15 | 1.77 ± 0.2
10 | TEQIKMRILSNDITNLQ [SRB8] | 2.33 ± 0.042 | 2.31 ± 0.037 | 2.15 ± 0.043 | 2.16 ± 0.029
11 | DPFFAQSEDLSHAVEFF [YML103C/NUP188] | 3.23 ± 0.056 | 3.17 ± 0.057 | 3.31 ± 0.045 | 3.14 ± 0.042
12 | SDSIEKIVEIDRHIGCA [PUP2] | – | 3.11 ± 0.24 | 2.74 ± 0.13 | 2.82 ± 0.19
13 | RNARAARAAKIAPRPLD [RPL13B] | 2.86 ± 0.12 | 3.11 ± 0.09 | 3.14 ± 0.074 | 2.45 ± 0.056
14 | KSLDSIPMSKTIKDLVG [FAS2] | 3.26 ± 0.12 | 2.97 ± 0.092 | 2.79 ± 0.13 | 3.16 ± 0.075
15 | TFRIFHNHDTGCDENDS [YDL088C/ASM4] | 2.92 ± 0.1 | 3.09 ± 0.14 | 3.27 ± 0.1 | 3.11 ± 0.1
16 | FVPVPALSAYHKVQTKL [RPS7B] | 2.42 ± 0.046 | 2.52 ± 0.046 | 2.27 ± 0.057 | 2.55 ± 0.032
17 | SRSRSSIRSISPAGKYK [ESC2] | 2.84 ± 0.14 | 2.96 ± 0.099 | 3.17 ± 0.064 | 3.14 ± 0.085
18 | TTKILGDKILGNLYSKV [YML103C/NUP188] | 2.69 ± 0.079 | 2.82 ± 0.08 | 3.16 ± 0.058 | 2.75 ± 0.051
19 | VGACTDEEMTISQKLHD [RRP43] | 3.14 ± 0.1 | 3.04 ± 0.089 | 3.04 ± 0.084 | 3.12 ± 0.059
20 | QQMIITRLKSLLKPFHV [SIR3] | 2.17 ± 0.07 | 2.08 ± 0.053 | 2 ± 0.073 | 1.99 ± 0.035
21 | LKKELKLLAKELEEQES [SMC2] | 2.81 ± 0.088 | 3.14 ± 0.063 | 2.9 ± 0.09 | 3.31 ± 0.07
22 | ANSESGHYQAFIRDELD [UBP6] | 3.31 ± 0.28 | 2.76 ± 0.11 | – | 2.66 ± 0.17
23 | SNQFKRSLATAVATPKA [COR1] | 1.55 ± 0.051 | 1.75 ± 0.049 | 1.35 ± 0.089 | 1.3 ± 0.041
24 | MDIILGIRVQDSVILAS [PRE1] | 1.47 ± 0.23 | 1.62 ± 0.2 | 1.71 ± 0.24 | 1.4 ± 0.11
25 | LDPSLRAPIYHSKFRSS [YML031W/NDC1] | 2.02 ± 0.093 | 2.34 ± 0.064 | 1.71 ± 0.25 | 2.35 ± 0.072
26 | VTSMEAAREKKIRELEA [YIL149C/MLP2] | 2.97 ± 0.072 | 2.9 ± 0.1 | 2.92 ± 0.07 | 2.86 ± 0.063

Row | Sequence | protein stability index (doa10∆) | protein stability index (pdr5∆) | protein stability index (san1∆) | protein stability index (ubr1∆)
27 | PQYINYSSIPSLQDSII [SSN2] | 2.97 ± 0.13 | 2.79 ± 0.12 | 2.9 ± 0.21 | 3.16 ± 0.086
28 | TENEKFISYHDKYLCML [NUT1] | 2.91 ± 0.056 | 3 ± 0.055 | 3.23 ± 0.049 | 3.11 ± 0.053
29 | EVSQFLIENGASVRIKD [NAS6] | 3.08 ± 0.21 | 2.39 ± 0.2 | – | 2.71 ± 0.12
30 | PKAISNFLIKLSELSPG [YCS4] | 2.37 ± 0.08 | 2.51 ± 0.085 | 2.08 ± 0.095 | 2.01 ± 0.056
31 | NTFTWNHSLQHQNESSA [RPN4] | 3.08 ± 0.056 | 3.19 ± 0.055 | 3.18 ± 0.058 | 3.17 ± 0.037
32 | DDALHAKKLPNGNWEVG [DIS3] | 3.3 ± 0.098 | 3.12 ± 0.083 | 2.94 ± 0.057 | 3.05 ± 0.057
33 | WSKTIKARTNLHQHVVL [RPC34] | 2.11 ± 0.1 | 1.8 ± 0.1 | 1.71 ± 0.21 | 2.34 ± 0.064
34 | FKLFNKYRPETAAEKKE [RPL8A] | 2.56 ± 0.079 | 2.64 ± 0.083 | 2.5 ± 0.083 | 2.74 ± 0.071
35 | GGFEDVEEYTWSSLLNE [RPB2] | – | 3.19 ± 0.17 | 3.12 ± 0.085 | –
36 | NVDNQTSDLVKSLGLKL [RPS17A] | 3.2 ± 0.087 | 3.29 ± 0.084 | 3.35 ± 0.066 | 3.06 ± 0.075
37 | EECGRTIHRSFTICLND [CSN12] | 2.93 ± 0.064 | 2.87 ± 0.065 | 2.84 ± 0.055 | 2.86 ± 0.044
38 | LNDPSLKIQFILSTTLD [SIN4] | 1.11 ± 0.055 | 1.45 ± 0.074 | 1.32 ± 0.14 | 1.18 ± 0.042
39 | GMIVISMENYHLLIKII [SRB8] | 1.96 ± 0.043 | 2.04 ± 0.044 | 2.71 ± 0.048 | 2.66 ± 0.045
40 | DNSNVMTVKLESITYQK [RGR1] | 2.88 ± 0.096 | 2.43 ± 0.1 | 3.1 ± 0.12 | 2.93 ± 0.1
41 | VNVLLQSYFSQLKFEGF [BRR2] | 1.22 ± 0.048 | 1.51 ± 0.046 | 1.28 ± 0.074 | 1.48 ± 0.033
42 | KKIIKCDEHMGLSLAGL [PRE5] | 2.94 ± 0.079 | 3.2 ± 0.076 | 3.15 ± 0.075 | 2.94 ± 0.076
43 | NKFMSIFLKRKDFTNKN [SRB8] | 2.38 ± 0.067 | 2.2 ± 0.082 | 3.03 ± 0.058 | 2.58 ± 0.065
44 | AINPGRVAASFSQEALQ [FAS1] | 2.05 ± 0.15 | 2.53 ± 0.15 | 2.63 ± 0.13 | 1.98 ± 0.098
45 | MSVEPVVVIDGKGHLVG [RPL16A] | 3.13 ± 0.15 | 3.42 ± 0.19 | 2.63 ± 0.11 | 3.1 ± 0.089
46 | VSNIEGILDEIMFNHAR [RGR1] | 2.77 ± 0.054 | 2.53 ± 0.053 | 2.46 ± 0.065 | 2.99 ± 0.031
47 | SEVQRTMLELLNQLDGF [RPT6] | 2.55 ± 0.1 | 2.5 ± 0.083 | 1.86 ± 0.15 | 2.51 ± 0.07
48 | FKDVEHISFNFSMLQMA [BRR2] | 1.76 ± 0.076 | 1.59 ± 0.056 | 2.33 ± 0.15 | 2.03 ± 0.049
49 | KSTASTAAANTEKLSNG [YOR098C/NUP1] | 2.91 ± 0.23 | 3.11 ± 0.16 | 3.1 ± 0.12 | 3.31 ± 0.091
50 | DKKLLRRLLNLYNDNNK [SWI1] | 2.48 ± 0.088 | 2.62 ± 0.072 | 2.57 ± 0.085 | 2.6 ± 0.068
51 | RKIKRLEKFLQGRDTSK [SRP72] | 2.79 ± 0.1 | 2.16 ± 0.059 | 2.14 ± 0.12 | 2.76 ± 0.048
52 | TLLVIRRLHKVLRPFLL [SNF2] | 1.26 ± 0.12 | 1.34 ± 0.093 | 1.34 ± 0.16 | 1.09 ± 0.08
